Key:
TRAILshort = TRAILshort (UniProt P50591); test: flow cytometry of 293T cells transfected with WT TRAILshort, isotype control staining
P76A TRAILshort = test: flow cytometry of 293T cells transfected with P76A TRAILshort, isotype control staining

Sequence of TRAILshort (P50591 other isoform, or with tags, fused parts or gaps): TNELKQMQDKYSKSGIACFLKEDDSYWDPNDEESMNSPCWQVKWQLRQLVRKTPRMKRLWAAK

- percent of cells in the gate (TRAILshort): 3.2%
- percent of cells in the gate (P76A TRAILshort): 2.2%
Substance: C555 labeled anti-Ig3 Isotype control (antibody)

Reference: patent publication US20190367626A1
